The target of assay [1] is FlaK K171A with a C-terminal His6-tag (Vibrio alginolyticus). In words: SEC. (SEC sorts molecules by how far they enter the pores of the column.)
Assay [2] has the same target. Description: cross-linking + SEC.
Assay [3] has the same target. In words: cross-linking.
Assay [4] addresses FlaK D236A with a C-terminal His6-tag (Vibrio alginolyticus). In words: cross-linking.
For assay [5], the target named is FlaK I365E with a C-terminal His6-tag (Vibrio alginolyticus). In words: SEC.
For assay [6] the target is unchanged. In words: cross-linking.
Assay [7] addresses FlaK, wild type, with a C-terminal His6-tag (Vibrio alginolyticus). Description: SEC.
Assay [8] has the same target. Description: cross-linking + SEC.
Assay [9] shares this target. In words: cross-linking.
For assay [10], the target named is FlaK Q140E with a C-terminal His6-tag (Vibrio alginolyticus). In words: cross-linking.
Assay [11] addresses FlaK E237Q with a C-terminal His6-tag (Vibrio alginolyticus). In words: cross-linking.
In assay [12] the target is FlaK L371E with a C-terminal His6-tag (Vibrio alginolyticus). Description: cross-linking.

Usually stoichiometry N stands for the number of molecules, sites or subunits per partner or assembly.

Where “and” joins values, the source holds several entries; their conditions need not be identical. Equal entries are not always repeated.

For “FlaK K171A with a C-terminal His6-tag (natural protein)”, the stoichiometry N was 2 in [1]; 4 and 6 in assay [2]; 2 in assay [3]. In [4], “FlaK D236A with a C-terminal His6-tag (natural protein)” returned a stoichiometry N of 2. “FlaK I365E with a C-terminal His6-tag (natural protein)”: the stoichiometry N in assay [5] and in [6] was 2 in each case. Consider “FlaK, wild type, with a C-terminal His6-tag (natural protein)”, for which the stoichiometry N in assay [7] was 2; in [8], 4 and 6; in [9], 2. Consider “FlaK Q140E with a C-terminal His6-tag (natural protein)”, for which the stoichiometry N in [10] came out at 2. Consider “FlaK E237Q with a C-terminal His6-tag (natural protein)”, for which the stoichiometry N in assay [11] amounted to 2. Substance “FlaK L371E with a C-terminal His6-tag (natural protein)” returned a stoichiometry N in [12] of 2.
